The values that follow come from patent US20200079868A1 (UNIVERSITY OF SOUTHERN CALIFORNIA, published 2020).

The assay deals with T1, CD20 (B-lymphocyte antigen CD20) on CD20+ human lymphoma cells (Raji, SU-DHL-7) (human, UniProt P11836 1-297).
T1 sequence (looked up): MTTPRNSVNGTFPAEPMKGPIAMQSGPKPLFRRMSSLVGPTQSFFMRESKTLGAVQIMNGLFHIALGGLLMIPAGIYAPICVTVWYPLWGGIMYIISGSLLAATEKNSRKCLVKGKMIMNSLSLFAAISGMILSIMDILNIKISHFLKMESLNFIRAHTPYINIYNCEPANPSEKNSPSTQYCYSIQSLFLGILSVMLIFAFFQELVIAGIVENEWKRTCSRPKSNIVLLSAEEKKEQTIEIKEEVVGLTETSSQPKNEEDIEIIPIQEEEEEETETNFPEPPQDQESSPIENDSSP
Description: cell-based or functional assay.

B1: Rituximab (antibody, V domains shown)
VH: QVQLQQPGAELVKPGASVKMSCKASGYTFTSYNMHWVKQTPGRGLEWIGAIYPGNGDTSYNQKFKGKATLTADKSSSTAYMQLSSLTSEDSAVYYCARSTYYGGDWYFNVWGAGTTVTVSA
VL: QIVLSQSPAILSASPGEKVTMTCRASSSVSYIHWFQQKPGSSPKPWIYATSNLASGVPVRFSGSGSGTSYSLTISRVEAEDAATYYCQQWTSNPPTFGGGTKLEIK
Take B1: the “IC50, cell viability (MTS/PMS), SU-DHL-7 cells” value came out at 4 µM.

B2: scFv A192 (anti-CD20 scFv-G(VPGAG)192Y fusion) (scFv)
scFv: QVQLQQPGAELVKPGASVKMSCKASGYTFTSYNMHWVKQTPGRGLEWIGAIYPGNGDTSYNQKFKGKATLTADKSSSTAYMQLSSLTSEDSAVYYCARSTYYGGDWYFNVWGAGTTVTVSAGGGGSGGGGSGGGGSQIVLSQSPAILSASPGEKVTMTCRASSSVSYIHWFQQKPGSSPKPWIYATSNLASGVPVRFSGSGSGTSYSLTISRVEAEDAATYYCQQWTSNPPTFGGGTKLEIKRTGVPGAGVPGAGVPGAGVPGAGVPGAGVPGAGVPGAGVPGAGVPGAGVPGAGVPGAGVPGAGVPGAGVPGAGVPGAGVPGAGVPGAGVPGAGVPGAGVPGAGVPGAGVPGAGVPGAGVPGAGVPGAGVPGAGVPGAGVPGAGVPGAGVPGAGVPGAGVPGAGVPGAGVPGAGVPGAGVPGAGVPGAGVPGAGVPGAGVPGAGVPGAGVPGAGVPGAGVPGAGVPGAGVPGAGVPGAGVPGAGVPGAGVPGAGVPGAGVPGAGVPGAGVPGAGVPGAGVPGAGVPGAGVPGAGVPGAGVPGAGVPGAGVPGAGVPGAGVPGAGVPGAGVPGAGVPGAGVPGAGVPGAGVPGAGVPGAGVPGAGVPGAGVPGAGVPGAGVPGAGVPGAGVPGAGVPGAGVPGAGVPGAGVPGAGVPGAGVPGAGVPGAGVPGAGVPGAGVPGAGVPGAGVPGAGVPGAGVPGAGVPGAGVPGAGVPGAGVPGAGVPGAGVPGAGVPGAGVPGAGVPGAGVPGAGVPGAGVPGAGVPGAGVPGAGVPGAGVPGAGVPGAGVPGAGVPGAGVPGAGVPGAGVPGAGVPGAGVPGAGVPGAGVPGAGVPGAGVPGAGVPGAGVPGAGVPGAGVPGAGVPGAGVPGAGVPGAGVPGAGVPGAGVPGAGVPGAGVPGAGVPGAGVPGAGVPGAGVPGAGVPGAGVPGAGVPGAGVPGAGVPGAGVPGAGVPGAGVPGAGVPGAGVPGAGVPGAGVPGAGVPGAGVPGAGVPGAGVPGAGVPGAGVPGAGVPGAGVPGAGVPGAGVPGAGVPGAGVPGAGVPGAGVPGAGVPGAGVPGAGVPGAGVPGAGVPGAGVPGAGVPGAGVPGAGVPGAGVPGAGVPGAGVPGAGVPGAGVPGAGVPGAGVPGAGVPGAGVPGAGVPGAGVPGAGVPGAGVPGAGVPGAGVPGAGVPGAGVPGAGVPGAGVPGAGVPGAGVPGAGY
modifications: rhodamine (RHD) labeled in the confocal binding assays; site of the label not stated
As to B2, the “IC50, cell viability (MTS/PMS), Raji cells” value was found to be 32 µM; the “IC50, cell viability (MTS/PMS), SU-DHL-7 cells” value is 41 µM; the “IC50, cell viability, SU-DHL-7 cells (figure legend; differs from the text)” value is 4 µM.
